Data on twelve molecules can be found in patent publication US20240116985A1, “STAPLED PEPTIDES AND METHODS THEREOF” (priority 2020, published 2024).

Broadly, the EC50 is the concentration at which the effect is half-maximal. What is called IC50 is the concentration at which inhibition is half-maximal.

Starred links: 1 amine or outer side, 2 acyl side, 3 side chain; linkers in the order of their positions; H or OH if unused. Positions of bridges follow the written chain, without caps; N, C: chain ends. Non-standard residues stand in square brackets, D forms with d. Primed or numbered codes have the meaning given here. *: point of attachment. PyrS2″ = (S)-3-amino-1-((pent-4-en-1-yloxy)carbonyl)pyrrolidine-3-carboxylic acid (stapling residue), C=CCCCOC(=O)N1CC[C@@](N[*:1])(C(=O)[*:2])C1; B5(4) = 2,2-bis(4-pentenyl)glycine = 2-amino-2-(pent-4-en-1-yl)hept-6-enoic acid (stitching residue), C=CCCCC(CCCC=C)(N[*:1])C(=O)[*:2]; TfeGA = (S)-2-amino-3-((carboxymethyl)(2,2,2-trifluoroethyl)amino)propanoic acid, O=C([C@H](CN(CC(=O)[*:3])CC(F)(F)F)N[*:1])[*:2]; PyrS2 = (S)-3-amino-1-((pent-4-en-1-yloxy)carbonyl)pyrrolidine-3-carboxylic acid, C=CCCCOC(=O)N1CC[C@@](N[*:1])(C(=O)[*:2])C1; B5(12) = 2-amino-2-(pent-4-en-1-yl)hept-6-enoic acid (two olefin side chains), C=CCCCC(CCCC=C)(N[*:1])C(=O)[*:2]; B5(13) = 2-amino-2-(pent-4-en-1-yl)hept-6-enoic acid (two alkene chains), C=CCCCC(CCCC=C)(N[*:1])C(=O)[*:2]; B5(3) = 2,2-bis(4-pentenyl)glycine (stitching residue), C=CCCCC(CCCC=C)(N[*:1])C(=O)[*:2]; B5 = 2-amino-2-(pent-4-en-1-yl)hept-6-enoic acid, C=CCCCC(CCCC=C)(N[*:1])C(=O)[*:2]; 4pentenyl = N-terminal pent-4-enoic acid (acyl cap), C=CCCC(=O)*; Phe(2-Cl) = N[C@@H](Cc1ccccc1Cl)C(=O)O; 2Nal = N[C@@H](Cc1ccc2ccccc2c1)C(=O)O; Bta = N[C@@H](Cc1csc2ccccc12)C(=O)O; αAllylPro = C=CC[C@@]1(C(=O)O)CCCN1; tBuAla = CC(C)(C)C[C@H](N)C(=O)O; 3Thi = N[C@@H](Cc1ccsc1)C(=O)O; S8 = C=CCCCCCC[C@](C)(N)C(=O)O; hSer = N[C@@H](CCO)C(=O)O

Assay [1] deals with full-length beta-Catenin (Uniprot ID P35222) (Homo sapiens (Human)) (UniProt P35222). As to the kind of experiment: FP competition; full-length beta-catenin, competitor 5FAM-TCF4(10-53).
Target sequence in this assay (P35222 whole entry, one chain of several): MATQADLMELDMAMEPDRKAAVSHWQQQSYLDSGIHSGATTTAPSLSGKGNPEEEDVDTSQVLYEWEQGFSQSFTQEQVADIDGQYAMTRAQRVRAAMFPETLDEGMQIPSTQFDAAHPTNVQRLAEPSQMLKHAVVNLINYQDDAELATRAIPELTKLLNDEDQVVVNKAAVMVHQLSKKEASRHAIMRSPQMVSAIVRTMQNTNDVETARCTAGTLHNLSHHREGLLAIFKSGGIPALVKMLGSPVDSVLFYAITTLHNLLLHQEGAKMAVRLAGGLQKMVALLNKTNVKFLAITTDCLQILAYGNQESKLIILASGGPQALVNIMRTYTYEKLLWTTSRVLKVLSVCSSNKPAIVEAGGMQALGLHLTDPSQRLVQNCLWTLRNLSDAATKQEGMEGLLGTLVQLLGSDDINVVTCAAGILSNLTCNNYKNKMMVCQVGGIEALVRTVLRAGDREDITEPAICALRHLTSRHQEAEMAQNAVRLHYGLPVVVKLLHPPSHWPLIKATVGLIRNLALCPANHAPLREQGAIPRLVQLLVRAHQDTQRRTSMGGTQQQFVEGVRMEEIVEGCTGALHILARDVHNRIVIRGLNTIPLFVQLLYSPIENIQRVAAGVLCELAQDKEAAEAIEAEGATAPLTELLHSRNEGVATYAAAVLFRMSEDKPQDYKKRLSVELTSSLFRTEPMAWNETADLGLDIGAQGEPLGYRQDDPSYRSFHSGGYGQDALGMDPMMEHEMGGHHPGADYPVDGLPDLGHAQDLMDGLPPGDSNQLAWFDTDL
The target is the same in assay [2]. As to the kind of experiment: fluorescence polarization competition; full-length beta-catenin + 5FAM-TCF4 10-53 probe, peptide titrated. On the technique in general: Polarisation of emitted light reports the rotation of a fluorescent probe.
Target sequence in this assay (P35222 2-781 limits assumed): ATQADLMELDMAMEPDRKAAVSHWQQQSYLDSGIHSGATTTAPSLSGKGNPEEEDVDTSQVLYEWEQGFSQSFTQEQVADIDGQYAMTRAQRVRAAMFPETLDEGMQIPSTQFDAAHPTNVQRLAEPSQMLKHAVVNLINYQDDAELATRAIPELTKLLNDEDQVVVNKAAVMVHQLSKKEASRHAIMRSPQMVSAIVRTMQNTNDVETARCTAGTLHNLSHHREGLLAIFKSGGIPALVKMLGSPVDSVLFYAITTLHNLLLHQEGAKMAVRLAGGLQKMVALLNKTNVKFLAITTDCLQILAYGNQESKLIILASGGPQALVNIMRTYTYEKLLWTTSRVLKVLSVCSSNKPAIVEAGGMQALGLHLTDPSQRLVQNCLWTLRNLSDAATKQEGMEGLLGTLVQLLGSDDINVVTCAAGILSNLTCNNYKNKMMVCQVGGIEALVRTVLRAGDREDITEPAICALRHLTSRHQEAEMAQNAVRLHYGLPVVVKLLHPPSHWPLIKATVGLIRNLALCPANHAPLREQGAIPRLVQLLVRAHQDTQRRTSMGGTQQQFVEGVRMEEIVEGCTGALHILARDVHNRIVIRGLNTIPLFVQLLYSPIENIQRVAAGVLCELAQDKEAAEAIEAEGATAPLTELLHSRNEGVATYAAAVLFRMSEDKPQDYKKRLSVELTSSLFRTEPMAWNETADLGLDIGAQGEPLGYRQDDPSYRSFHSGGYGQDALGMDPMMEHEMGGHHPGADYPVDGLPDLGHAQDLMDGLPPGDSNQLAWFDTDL
Assay [3] addresses Bcat-Halo (UniProt P35222). As to the kind of experiment: NanoBRET in HEK293 cells, Bcat-Halo / TCF4-Luc; absolute IC50. Background: Bioluminescence resonance energy transfer reports proximity on the nanometre scale.
Assay [4] has as its target full-length beta-Catenin (Uniprot ID P35222) (Homo sapiens (Human)) (UniProt P35222). As to the kind of experiment: fluorescence polarization competition, full-length beta-catenin with 5FAM-TCF4(10-53) probe as competitor.
Target sequence in this assay (P35222 2-781 limits assumed): as above
The target in assay [5] is Bcat-Halo (UniProt P35222). As to the kind of experiment: NanoBRET Abs IC50 in HEK293 cells; Bcat-Halo, competitor TCF4-Luc.
Sequence of Bcat-Halo (P35222 whole entry): as the sequence (P35222 whole entry, one chain of several) above
Assay [6] addresses full-length beta-Catenin (Uniprot ID P35222) (Homo sapiens (Human)) (UniProt P35222). As to the kind of experiment: fluorescence polarization competition; full-length beta-catenin, competitor 5FAM-TCF4(10-53) probe.
The target in assay [7] is beta-catenin (full-length, Uniprot ID P35222) (Homo sapiens (Human)) (UniProt P35222). As to the kind of experiment: fluorescence polarization competition, displacement of 5FAM-TCF4 10-53 from full-length beta-catenin.
Target sequence in this assay (P35222 2-781 limits assumed): as the sequence (P35222 2-781 limits assumed) above
For assay [8], the target named is full-length beta-Catenin (Uniprot ID P35222) (Homo sapiens (Human)) (UniProt P35222). As to the kind of experiment: FP competition vs 5FAM-TCF4(10-53) probe on full-length beta-catenin.
Target sequence in this assay (P35222 whole entry, one chain of several): as the sequence (P35222 whole entry, one chain of several) above
For assay [9] the target is unchanged. As to the kind of experiment: AlphaScreen competition vs biotin-TCF4(10-53) on full-length beta-catenin. Background: Bead proximity is the source of the signal in Alpha formats.
Target sequence in this assay (P35222 whole entry, one chain of several): as above
Assay [10] deals with beta-catenin (full-length, Uniprot ID P35222) (Homo sapiens (Human)) (UniProt P35222). As to the kind of experiment: fluorescence polarization competition; full-length beta-catenin; competitor 5FAM-TCF4(10-53) probe.
Target sequence in this assay (P35222 whole entry, one chain of several): as above
The target of assay [11] is full-length beta-Catenin (Uniprot ID P35222) (Homo sapiens (Human)) (UniProt P35222). As to the kind of experiment: fluorescence polarization competition against 5FAM TCF4 10-53 probe.
Target sequence in this assay (P35222 whole entry, one chain of several): as above
For assay [12], the target named is Bcat-Halo (UniProt P35222). As to the kind of experiment: NanoBRET in HEK293 cells, B-cat-Halo/TCF4-Luc, absolute IC50.
In assay [13] the target is full-length beta-Catenin (Uniprot ID P35222) (Homo sapiens (Human)) (UniProt P35222). As to the kind of experiment: AlphaScreen competition; full-length beta-catenin with biotin-TCF4(10-53) probe as competitor.
Target sequence in this assay (P35222 2-781 limits assumed): as the sequence (P35222 2-781 limits assumed) above
In assay [14] the target is Bcat-Halo (UniProt P35222). As to the kind of experiment: NanoBRET in HEK293 cells, Bcat-Halo/TCF4-Luc (competitor TCF4-Luc); IC50.
For assay [15], the target named is Bcat-Halo (UniProt P35222). As to the kind of experiment: NanoBRET in HEK293 cells, Bcat-Halo/TCF4-Luc (competitor TCF4-Luc); percent inhibition at 10 uM peptide.
Assay [16] deals with full-length beta-Catenin (Uniprot ID P35222) (Homo sapiens (Human)) (UniProt P35222). As to the kind of experiment: fluorescence polarization competition; peptide displaces 5FAM-TCF4(10-53) from full-length beta-catenin.
Target sequence in this assay (P35222 2-781 limits assumed): as above
Assay [17] has the same target. As to the kind of experiment: fluorescence polarization competition; full-length beta-catenin, 5FAM-TCF4(10-53) probe.
Target sequence in this assay (P35222 2-781 limits assumed): as above
Assay [18] addresses Bcat-Halo (UniProt P35222). As to the kind of experiment: NanoBRET Abs IC50; HEK293 cells transfected with B-cat-Halo and TCF4-Luc.
Assay [19] concerns the target full-length beta-Catenin (Uniprot ID P35222) (Homo sapiens (Human)) (UniProt P35222). As to the kind of experiment: fluorescence polarization competition; 10 nM full-length beta-catenin; competitor 5FAM-TCF4 10-53 probe.
Target sequence in this assay (P35222 whole entry, one chain of several): as the sequence (P35222 whole entry, one chain of several) above
Assay [20] deals with Bcat-Halo (UniProt P35222). As to the kind of experiment: NanoBRET Abs IC50 (absolute IC50) in HEK293 cells, Bcat-Halo / TCF4-Luc engagement.
The target of assay [21] is full-length beta-Catenin (Uniprot ID P35222) (Homo sapiens (Human)) (UniProt P35222). As to the kind of experiment: fluorescence polarization competition, full-length beta-catenin with 5FAM-TCF4(10-53) probe.
Target sequence in this assay (P35222 2-781 limits assumed): as the sequence (P35222 2-781 limits assumed) above
For assay [22] the target is unchanged. As to the kind of experiment: fluorescence polarization competition; 10 nM full-length beta-catenin with 10 nM 5FAM-TCF4 (residues 10-53) probe as competitor.
The target is the same in assay [23]. As to the kind of experiment: fluorescence polarization competition; displacement of 5FAM-TCF4(10-53) from full-length beta-catenin.
Target sequence in this assay (P35222 whole entry, one chain of several): as the sequence (P35222 whole entry, one chain of several) above
For assay [24], the target named is Bcat-Halo (beta-catenin HaloTag construct expressed in HEK293 cells) (UniProt P35222). As to the kind of experiment: NanoBRET in HEK293 cells, percent inhibition at 10 uM peptide; Bcat-Halo with TCF4-Luc as competitor.
Sequence of Bcat-Halo (beta-catenin HaloTag construct expressed in HEK293 cells) (P35222 whole entry): as the sequence (P35222 whole entry, one chain of several) above
Assay [25] deals with full-length beta-Catenin (Uniprot ID P35222) (Homo sapiens (Human)) (UniProt P35222). As to the kind of experiment: fluorescence polarization competition; 10 nM full-length beta-catenin + 10 nM 5FAM-TCF4(10-53) as competitor probe; peptide titrated (top concentration 10 uM).
Assay [26] shares this target. As to the kind of experiment: fluorescence polarization competition; 5FAM-TCF4 10-53 probe on full-length beta-catenin.
Assay [27] concerns the target Bcat-Halo (UniProt P35222). As to the kind of experiment: NanoBRET Abs IC50; Bcat-Halo/TCF4-Luc engagement in HEK293 cells.
The target of assay [28] is full-length beta-Catenin (Uniprot ID P35222) (Homo sapiens (Human)) (UniProt P35222). As to the kind of experiment: fluorescence polarization competition, peptide titrated against full-length beta-catenin + 5FAM-TCF4(10-53).

In [1], Ac-[αAllylPro]D[tBuAla][B5(4)]DDAAF[hSer][S8]F[Bta]Q-NH2 (staple 1-4, 4-11) [I-1388] gave an EC50 of 18 nM. Besides, the IC50 in assay [2] is 18 nM; in assay [3], 11300 nM.

In turn, Ac-[αAllylPro]D[tBuAla][B5(4)]DEAAFN[S8]F[Bta]Q-NH2 (staple 1-4, 4-11) [I-677] returned an EC50 in [4] of 22 nM. The results for the IC50 in assay [5] and in assay [6] were 6700 nM and 22 nM, respectively.

On to Ac-[αAllylPro]DA[B5(4)]D[TfeGA]AAFV[S8]F[Bta]Q-NH2 (staple 1-4, 4-11) [I-293: Ac-PL3-Asp-Ala-B5-Asp-TfeGA-Ala-Ala-Phe-Val-S8-Phe-BztA-Gln-NH2], for which the half-inhibitory concentration (IC50) in assay [7] was 140 nM.

Ac-[αAllylPro]DA[B5(4)]D[2Nal]AAFQ[S8]F[Bta]Q-NH2 (staple 1-4, 4-11) [I-295]: the EC50 in assay [8] was determined as 5000 nM; in assay [9] it was 1180 nM. The IC50 in [10] turned out to be 5000 nM.

B1: I-2599 (peptide)
peptide: 4pentenyl-XD[B5(3)]ADDAAF[PyrS2]L[3Thi][Bta]Q-NH2
modifications: staple 3-10; staple (positions not given here); not fully specified (residue 1, bridges); printed as 4pentenyl-MePro-Asp-B5-Ala-Asp-Asp-Ala-Ala-Phe-PyrS2-Leu-3Thi-BztA-Gln-NH2
For B1, the figures for the half-inhibitory concentration (IC50) in assay [11] and in assay [12] were 234 nM and greater than 20000 nM, respectively.

Turning to Ac-[αAllylPro]DA[B5(12)]DEAAFV[S8]F[2Nal]-NH2 (staple 1-4, 4-11) [I-141], in assay [13], the EC50 was 5450 nM.

Consider Ac-[αAllylPro]D[tBuAla][B5(13)]DDAAFN[PyrS2]F[Bta]H-NH2 (staple 1-4, 4-11) [I-777], for which the figures for the IC50 in assay [14] and in assay [16] were 14400 nM and 5 nM, respectively. Further, the NanoBRET % inh @ 10 uM in assay [15] came to 24.5%. The same molecule came in with a concentration for a half-maximal effect (EC50) in assay [6] of 5 nM.

For Ac-[αAllylPro]D[tBuAla][B5]NTAAFN[PyrS2][3Thi][Bta]A-NH2 (staple 1-4, 4-11; also: earlier eluting HPLC isomer) [I-2142], the IC50 in assay [17] was 271 nM; in [18], greater than 20000 nM.

For the molecule Ac-[αAllylPro]D[tBuAla][B5(3)]D[TfeGA]AAFF[PyrS2″][Phe(2-Cl)][Bta]Q-NH2 (staple 1-4, 4-11) [I-923], the IC50 in assay [19] was 27 nM; in [20], 6000 nM. Moreover, the concentration giving a half-maximal response (EC50) in assay [21] turned out to be 27 nM.

Ac-[αAllylPro]D[tBuAla][B5(4)]DLAAFN[PyrS2][3Thi][Bta]Q-NH2 (staple 1-4, 4-11) [I-846] displayed an EC50 in assay [22] of 35 nM. The molecule further showed an IC50 in assay [23] of 56 nM. Moreover, in [24], the NanoBRET % inh @ 10 uM was found to be 4.3%.

Turning to Ac-[αAllylPro]D[tBuAla][B5(4)]NTAAFF[PyrS2″][3Thi][Bta]Q-NH2 (staple 1-4, 4-11) [I-1740], in [25], the IC50 was found to be 10000 nM.

For the molecule Ac-[αAllylPro]D[tBuAla][B5]DDAAFN[PyrS2″][3Thi][Bta][dN]-NH2 (staple 1-4, 4-11) [I-818], the IC50 in [26] came out at 6 nM; in [27] it was 15000 nM. The EC50 in assay [28] stood at 6 nM.
